Experimental data as given in publication PMC10241049, “Derivation of the small-angle scattering profile of a target biomacromolecule from a profile deteriorated by aggregates. AUC–SAS” (Journal of Applied Crystallography, 2023).

Biological target: the molecule itself
Experiment: AUC + other: small-angle X-ray scattering (AUC-SAS); sedimentation velocity AUC (45 000 r/min, interference optics) and laboratory SAXS, 298 K; 2.0 mg/ml in 100 mM Tris-HCl pH 7.5, 100 mM NaCl; the derived profile of the main component was compared with the structure of the 24-mer and with SEC-SAXS

B1: apoferritin (natural protein)
chain: SSQIRQNYSTEVEAAVNRLVNLYLRASYTYLSLGFYFDRDDVALEGVCHFFRELAEEKREGAERLLKMQNQRGGRALFQDLQKPSQDEWGTTLDAMKAAIVLEKSLNQALLDLHALGSAQADPHLCDFLESHFLDEEVKLIKKMGDHLTNIQRLVGSQAGLGEYLFERLTLKHD
notes: apoferritin; it uses PDB 4v1w as the structure of this protein; PDB 4v1w is horse spleen apoferritin (light chain); also called AF; AF5; source: bought: Merck, Sigma-Aldrich; purified by SEC (Superose 6 Increase 10/300 GL); copies: 24
- stoichiometry N: 24
